Assay results taken from patent US9533026B2, “Polypeptide compounds for inhibiting angiogenesis and tumor growth” (VasGene Therapeutics, Inc., priority 2004, dated 2017).
Like-named read-outs stand apart in the source and are kept apart here.

Assays:
EphrinB2 [1] = molecular target: T1, EphrinB2 (Homo sapiens, UniProt P52799); assay: Ephrin B2-AP binding to immobilized EphB4EC proteins; conditions: B4 proteins immobilized on Ni2+-resin or nitrocellulose
T1 construct: protein fusion of Ephrin B2 ectodomain with placental alkaline phosphatase
T1 sequence (P52799 28-229 limits assumed): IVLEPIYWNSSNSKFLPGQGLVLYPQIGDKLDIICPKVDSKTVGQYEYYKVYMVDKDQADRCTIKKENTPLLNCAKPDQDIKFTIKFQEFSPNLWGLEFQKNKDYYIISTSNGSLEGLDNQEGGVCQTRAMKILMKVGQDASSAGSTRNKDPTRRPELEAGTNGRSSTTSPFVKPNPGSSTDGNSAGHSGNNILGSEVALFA
Procedure: 10 μl of Ni-NTA-Agarose were incubated in microcentrifuge tubes with 50 μl of indicated amount of B4ECv3 diluted in binding buffer BB (20 mM Tris-HCl, 0.15 M NaCl, 0.1% bovine serum albumin pH 8) After incubation for 30 min on shaking platform, Ni-NTA beads were washed twice with 1.4 ml of BB, followed by application of 50 μl of B2-AP in the final concentration of 50 nM. Binding was performed for 30 min on shaking platform, and then tubes were centrifuged and washed one time with 1.4 ml of BB. Amount of precipitated AP was measured colorimetrically after application of PNPP.
To confirm ability of the purified recombinant proteins to bind Ephrin B2, they were tested in an in vitro binding assay. As expected, GC, GCF1 and GCF2, but not CF2 are binding the cognate ligand Ephrin B2 as confirmed by interaction between Ephrin B2-alkaline phosphatase (Ephrin B2-AP) fusion protein with the B4 proteins immobilized on Ni^2+-resin or on nitrocellulose membrane (FIG. 17).

EphB4 receptor = assay: Cell-based EphB4 tyrosine kinase assay in PC3 cells; design: species or system human; conditions: Ephrin B2-Fc ligand preincubated with protein
Procedure: All four proteins were also tested for their ability to block ligand-dependent dimerization and activation of Eph B4 receptor kinase in PC3 cells. The PC3 human prostate cancer cell line is known to express elevated levels of human Eph B4. Stimulation of PC3 cells with Ephrin B2 IgG Fc fusion protein leads to a rapid induction of tyrosine phosphorylation of the receptor. However, preincubation of the ligand with GCF2, GCF1 or GC, but not CF2 proteins suppresses subsequent EphB4 autophosphorylation.
The human prostate carcinoma cell line PC3 cells were maintained in RPMI medium with 10% dialyzed fetal calf serum and 1% penicillin/streptomycin/neomycin antibiotics mix. Cells were maintained at 37° C. in a humidified atmosphere of 5% CO2/95% air. Typically, cells were grown in 60 mm dishes until confluency and were either treated with mouse Ephrin B2-Fc fusion at 1 μg/ml in RPMI for 10 min to activate EphB4 receptor or plain medium as a control. To study the effect of different derivatives of soluble EphB4 ECD proteins on EphB4 receptor activation, three sets of cells were used. In the first set, cells were treated with various proteins (5 proteins; GC, GCF1, GCF2, GCF2-F, CF2) at 5 μg/ml for 20 min. In the second set of cells, prior to application, proteins were premixed with ephrinB2-Fc at 1:5 (EphB4 protein:B2-Fc) molar ratio, incubated for 20 min and applied on cells for 10 min. In the third set of cells, cells were first treated with the proteins for 20 min at 5 μg/ml, media was replaced with fresh media containing 1 μg/ml of EphrinB2-Fc and incubated for another 10 min.
After the stimulation, cells were immediately harvested with protein extraction buffer containing 20 mM Tris-HCl, pH 7.4, 150 mM NaCl, 1% (v/v) Triton X100, 1 mM EDTA, 1 mM PMSF, 1 mM Sodium vanadate. Protein extracts were clarified by centrifugation at 14,000 rpm for 20 min at 4° C. Clarified protein samples were incubated overnight with protein A/G coupled agarose beads pre-coated with anti-EphB4 monoclonal antibodies. The IP complexes were washed twice with the same extraction buffer containing 0.1% Triton X100. The immunoprecipitated proteins were solubilized in 1×SDS-PAGE sample loading buffer and separated on 10% SDS-PAGE. For EphB4 receptor activation studies, electroblotted membrane was probed with anti-pTyr specific antibody 4G10 at 1:1000 dilution followed by Protein G-HRP conjugate at 1:5000 dilutions.

[2] = In vitro stability in mouse serum (retained B2-AP binding); type: in vitro ADME
Procedure: Both soluble EphB4 ectodomain protein (sB4) and EphB4 ectodomain fused to HSA (HSA-sB4) were biotin labeled through carbohydrate chains using sodium meta-periodate as an oxidant and EZ-Link Biotin Hydrazide (PIERCE, Cat. #21339) according to manufacture's protocol. The in vitro stability of the biotinylated sB4 protein was tested by incubating […] with 40 μL of mouse serum at 37° C. for 0, 0.5, 1, 2 and 3 days. Two μL of magnetic beads and B2-AP was added for an extra hour at room temperature. After washing twice with buffer, pnPP was added for 1 hour.
The fractions were also tested for their stability in vitro. The fractions were tested for retention of EphrinB2 binding activity after incubation in mouse serum at 37° C. for three days.

EphrinB2 [3] = molecular target: T1, EphrinB2; assay: EphrinB2 (B2-AP) binding assay on affinity magnetic beads; conditions: SP column fractions 1, 2 and 3
Description: To test whether the B4-HSA fusion property retained the ability of the EphB4 extracellular domain to bind to EphrinB2, the ability of the purified B4-HSA fusion was compared to that of GCF2F, GCF2, GC, CF and B4-Fc fusion, which comprises the extracellular domain of B4 fused to hIgG1 Fc as described in Example 1. Biotinylated or His-tag protein samples were inoculated with the corresponding affinity magnetic beads and B2-AP for an hour at room temperature, before addition of PnPP. Results of binding assays are shown on FIG. 67.
Fractions 1, 2 and 3 of biotinylated and PEGylated sB4 from the SP column purification, corresponding to polypegylated, monopegylated and unpegylated biotinylated sB4, were tested for their ability to bind EphrinB2 using the standard assay. Results of this experiment are shown on FIG. 72.

[4] = retention of EphrinB2 binding, mouse serum, 37° C., three days

Row | Molecule | binding the cognate ligand Ephrin B2 (EphrinB2 [1]) | EphB4 autophosphorylation (EphB4 receptor) | B2 binding activity lost [2] | order of in vitro stability [2] | order of binding activity (EphrinB2 [3]) | order of in vitro stability [2, 4]
1 | CF2: EphB4 ECD version with deleted globular domain, SEQ ID NO:15 (protein, Recombinant B4-CF2) MELRVLLCWASLAAALEETLLNTKLETQLTVNLTRFPETVPRELVVPVAGSCVVDAVPAPGPSPSLYCREDGQWAEQPVTGCSCAPGFEAAEGNTKCRACAQGTFKPLSGEGSCQPCPANSHSNTIGSAVCQCRVGYFRARTDPRGAPCTTPPSAPRSVVSRLNGSSLHLEWSAPLESGGREDLTYALRCRECRPGGSCAPCGGDLTFDPGPRDLVEPWVVVRGLRPDFTYTFEVTALNGVSSLATGPVPFEPVNVTTDREVPPAVSDIRVTRSSPSSLSLAWAVPRAPSGAWLDYEVKYHEKGAEGPSSVRFLKTSENRAELRGLKRGASYLVQVRARSEAGYGPFGQEHHSQTQLDESEGWREQGGRSSLEGPRFEGKPIPNPLLGLDSTRTGHHHHHH | not | not | – | – | – | –
2 | GCF2: recombinant protein containing the complete ectopic part of EphB4, 6xHis tagged, SEQ ID NO:14 (protein, Recombinant FL-hB4EC) MELRVLLCWASLAAALEETLLNTKLETADLKWVTFPQVDGQWEELSGLDEEQHSVRTYEVCEVQRAPGQAHWLRTGWVPRRGAVHVYATLRFTMLECLSLPRAGRSCKETFTVFYYESDADTATALTPAWMENPYIKVDTVAAEHLTRKRPGAEATGKVNVKTLRLGPLSKAGFYLAFQDQGACMALLSLHLFYKKCAQLTVNLTRFPETVPRELVVPVAGSCVVDAVPAPGPSPSLYCREDGQWAEQPVTGCSCAPGFEAAEGNTKCRACAQGTFKPLSGEGSCQPCPANSHSNTIGSAVCQCRVGYFRARTDPRGAPCTTPPSAPRSVVSRLNGSSLHLEWSAPLESGGREDLTYALRCRECRPGGSCAPCGGDLTFDPGPRDLVEPWVVVRGLRPDFTYTFEVTALNGVSSLATGPVPFEPVNVTTDREVPPAVSDIRVTRSSPSSLSLAWAVPRAPSGAWLDYEVKYHEKGAEGPSSVRFLKTSENRAELRGLKRGASYLVQVRARSEAGYGPFGQEHHSQTQLDESEGWREQGSKRAILQIEGKPIPNPLLGLDSTRTGHHHHHH | binding | suppresses | – | – | – | –
3 | sB4: soluble EphB4 ectodomain protein, biotin labeled through carbohydrate chains; SP column fraction 3 (protein) LEETLLNTKLETADLKWVTFPQVDGQWEELSGLDEEQHSVRTYEVCDVQRAPGQAHWLRTGWVPRRGAVHVYATLRFTMLECLSLPRAGRSCKETFTVFYYESDADTATALTPAWMENPYIKVDTVAAEHLTRKRPGAEATGKVNVKTLRLGPLSKAGFYLAFQDQGACMALLSLHLFYKKCAQLTVNLTRFPETVPRELVVPVAGSCVVDAVPAPGPSPSLYCREDGQWAEQPVTGCSCAPGFEAAEGNTKCRACAQGTFKPLSGEGSCQPCPANSHSNTIGSAVCQCRVGYFRARTDPRGAPCTTPPSAPRSVVSRLNGSSLHLEWSAPLESGGREDLTYALRCRECRPGGSCAPCGGDLTFDPGPRDLVEPWVVVRGLRPDFTYTFEVTALNGVSSLATGPVPFEPVNVTTDREVPPAVSDIRVTRSSPSSLSLAWAVPRAPSGAVLDYEVKYHEKGAEGPSSVRFLKTSENRAELRGLKRGASYLVQVRARSEAGYGPFGQEHHSQTQLDESEGWREQLA | – | – | less than 10% | monopegylated>unpegylated>polypegylated | Unpegylated>monopegylated>polypegylated | –
4 | monopegylated: fraction 2: monopegylated biotinylated sB4, linear PEG-succinimidyl propionate of about 20 kda (conjugate) LEETLLNTKLETADLKWVTFPQVDGQWEELSGLDEEQHSVRTYEVCDVQRAPGQAHWLRTGWVPRRGAVHVYATLRFTMLECLSLPRAGRSCKETFTVFYYESDADTATALTPAWMENPYIKVDTVAAEHLTRKRPGAEATGKVNVKTLRLGPLSKAGFYLAFQDQGACMALLSLHLFYKKCAQLTVNLTRFPETVPRELVVPVAGSCVVDAVPAPGPSPSLYCREDGQWAEQPVTGCSCAPGFEAAEGNTKCRACAQGTFKPLSGEGSCQPCPANSHSNTIGSAVCQCRVGYFRARTDPRGAPCTTPPSAPRSVVSRLNGSSLHLEWSAPLESGGREDLTYALRCRECRPGGSCAPCGGDLTFDPGPRDLVEPWVVVRGLRPDFTYTFEVTALNGVSSLATGPVPFEPVNVTTDREVPPAVSDIRVTRSSPSSLSLAWAVPRAPSGAVLDYEVKYHEKGAEGPSSVRFLKTSENRAELRGLKRGASYLVQVRARSEAGYGPFGQEHHSQTQLDESEGWREQLA | – | – | – | – | Unpegylated>monopegylated>polypegylated | monopegylated>unpegylated>polypegylated
5 | polypegylated: fraction 1: polypegylated biotinylated sB4, linear PEG-succinimidyl propionate of about 20 kda (conjugate) LEETLLNTKLETADLKWVTFPQVDGQWEELSGLDEEQHSVRTYEVCDVQRAPGQAHWLRTGWVPRRGAVHVYATLRFTMLECLSLPRAGRSCKETFTVFYYESDADTATALTPAWMENPYIKVDTVAAEHLTRKRPGAEATGKVNVKTLRLGPLSKAGFYLAFQDQGACMALLSLHLFYKKCAQLTVNLTRFPETVPRELVVPVAGSCVVDAVPAPGPSPSLYCREDGQWAEQPVTGCSCAPGFEAAEGNTKCRACAQGTFKPLSGEGSCQPCPANSHSNTIGSAVCQCRVGYFRARTDPRGAPCTTPPSAPRSVVSRLNGSSLHLEWSAPLESGGREDLTYALRCRECRPGGSCAPCGGDLTFDPGPRDLVEPWVVVRGLRPDFTYTFEVTALNGVSSLATGPVPFEPVNVTTDREVPPAVSDIRVTRSSPSSLSLAWAVPRAPSGAVLDYEVKYHEKGAEGPSSVRFLKTSENRAELRGLKRGASYLVQVRARSEAGYGPFGQEHHSQTQLDESEGWREQLA | – | – | – | – | Unpegylated>monopegylated>polypegylated | monopegylated>unpegylated>polypegylated
